How the values were obtained:
SKM9-2 [1] = assay: Deglycosylation analysis: western blotting using SKM9-2 of neuraminidase-treated cell lysates; format: binding; details: full-length HEG1, lysates of ACC-MESO4 (native) or HEG1-transfected HEK293T, 6% SDS-PAGE
From the text: Figure 8 SKM9-2 epitope produced from mesothelioma cells. (a) Chromatogram of SKMepmin3 separation using anion exchange column. SKMepmin3 produced from HEK293T (blue line) or ACC-MESO4 (pink line) was affinity-purified using SKM9-2-immobilized resins and separated by Mini Q 4.6/50 PE. A major peak of SKMepmin3 purified from HEK293T contained two disialyl T antigens (Fig. 6). (b) Western blotting for epitope-fused GPI-anchor protein (7.6231) treated with neuraminidases. Cell lysate of 7.6231-transfected ACC-MESO1 (top panel), ACC-MESO4 (middle panel), or HEK293T (lower panel) was treated with α2-3 Neuraminidase S or Neuraminidase A, resolved by 4–15% SDS-PAGE, and analyzed by western blotting using SKM9-2. (c) Western blotting for full-length HEG1 treated with neuraminidases. Cell lysates of ACC-MESO4 (upper panel) and HEG1-transfected HEK293T (lower panel) were treated with α2-3 Neuraminidase S or Neuraminidase A and analyzed by 6% SDS-PAGE and western blotting using SKM9-2. (d) Schematic of SKM9-2 epitope. Full-length blots are presented in Supplementary Fig. S10.
Monolayer cells were solubilized with 20 mM Tris buffer (pH 8.0) containing 1% SDS, 1 mM phenylmethylsulfonyl fluoride, 125 mU/mL Benzonase Nuclease (Merck Millipore Co., Tokyo, Japan) (25 µL/cm^2 culture surface area). The lysate (10 µL/lane) was resolved by SDS-PAGE under reducing conditions using 6% polyacrylamide gels or 4–15% precast gels (Bio-Rad Laboratories Inc., Hercules, CA, USA). Then it was transferred to a polyvinylidene difluoride membrane (Immobilon-P; Merck Millipore Co.) by semi-dry blotting in a buffer containing 25 mM Tris, 192 mM glycine, 0.1% SDS, and 20% methanol. The membrane was blocked with 5% non-fat milk in 20 mM Tris-buffered saline (pH 7.2) containing 0.1% Tween 20 and reacted with 1 µg/mL of mAb SKM9-2 or anti-FLAG (Anti-DYKDDDDK tag mAb; 1E6, Wako Pure Chemical Industries, Osaka, Japan). After washing, it was treated with horseradish peroxidase-conjugated goat anti-mouse IgG (Jackson ImmunoResearch, West Grove, PA, USA), and developed with Amersham ECL select (GE Healthcare, Buckinghamshire, UK). Although glycan in non-fat milk often interferes the glycan-dependent binding of an antibody, the SKM9-2 binding was not affected by the blocking using non-fat milk, in comparison with 5% bovine serum albumin (Supplementary Fig. S6).
Cell lysate or SKMepmin3 was treated with α2-3 Neuraminidase S, α2-3, 6, 8, 9 Neuraminidase A, and O-Glycosidase (New England Biolabs Japan, Tokyo, Japan) in 50 mM sodium phosphate (pH 7.5) containing 1% Nonidet P-40, according to the manufacturer’s instructions. The cell lysate sample was resolved by 4–15% or 6% SDS-PAGE under reducing conditions and detected by western blotting using SKM9-2. The analysis of the SKMepmin3 sample was performed by SPR.

SKM9-2 [2] = assay: Western blotting using SKM9-2 of HEG1 truncated mutants and epitope-fused GPI-anchor proteins; format: binding; details: cell lysates of transfected HEK293T, SDS-PAGE under reducing conditions, 1 µg/mL SKM9-2
From the text: Figure 1 SKM9-2 binding to truncated mutants of HEG1. Schematics of full-length HEG1 (Full) and the truncated mutants are indicated on the left side and the results of western blotting using SKM9-2 are shown on the right side. Truncated amino acid position, which is based on a full-length variant of HEG1 containing exon 6, is shown as a number in the schematic of domain structure. The region of the SKM9-2 epitope is shown as a red square. […] SLURP GPI-anchor protein[18] was used as a fused GPI-anchor protein (violet square). The terminal sequences of the HEG1 peptide are shown in the western blot lane. The samples were resolved by 6% SDS-PAGE (a and b) or 4–15% SDS-PAGE (c) under reducing conditions and were detected by western blotting using SKM9-2. Cyt, cytoplasmic domain; EGFs, EGF related domains; Ser/Thr, serine/threonine rich region; SLURP, secreted lymphocyte antigen-6/urokinase-type plasminogen activator receptor-related peptide; SP, signal peptide; TM, transmembrane domain. Full-length blots are presented in Supplementary Fig. S7.
Figure 2 Epitope mapping of SKM9-2. Schematic of epitope peptides (left side) and western blots resolved by 4–15% SDS-PAGE (right side) are shown. The HEG1 peptide sequences are indicated in the western blot lane. Each epitope peptide was fused with a signal peptide (dashed line square) and a SLURP GPI-anchor protein (violet square). Full-length blots are presented in Supplementary Fig. S8.
Figure 3 Alanine scanning of SKM9-2 epitope. […] Cell lysates of transfected HEK293T (upper panel) or transfected ACC-MESO1 (lower panel) were resolved by 4–15% SDS-PAGE and analyzed by western blotting using SKM9-2. (b) S897A mutant of FLAG-tagged HEG1 in HEK293T was resolved by 4–15% SDS-PAGE and analyzed by western blotting using SKM9-2 (upper panel) or anti-FLAG mAb (lower panel). Native HEG1 in ACC-MESO4 and FLAG-tagged HEG1 without mutation in HEK293T were used as controls. Full-length blots are presented in Supplementary Fig. S9.
Sequences of tested HEG1 are shown in Supplementary Dataset. Full-length HEG1 cDNA was synthesized from total RNA purified with TRIzol reagent (Thermo Fisher Scientific) from ACC-MESO-4, using an oligo dT primer and SuperScript II RNase H reverse transcriptase (Thermo Fisher Scientific). cDNA encoding the HEG1 open reading frame was amplified by PCR using PrimeSTAR HS DNA Polymerase (Takara Bio Inc., Shiga, Japan). The HEG1 cDNA was cloned and inserted into the pcDNA3.1(−) mammalian expression vector (Thermo Fisher Scientific). For analyses of N-terminal truncation, we inserted mutants into pFLAG-CMV1 (Sigma-Aldrich Japan K.K., Tokyo, Japan). For analyses of C-terminal deletion lacking the transmembrane domain, we used mutants that were fused with a GPI-anchor protein, SLURP1-gpi[18], in pcDNA3.1(+) (Thermo Fisher Scientific) (Supplementary Dataset). Alanine substituted mutants were prepared using site directed mutagenesis. To produce a soluble epitope peptide, a modified HEG1 signal peptide and a C-terminal tag containing the FLAG tag plus a polyhistidine sequence were used in the mammalian expression vector pEF-BOS[39] (Supplementary Dataset). The plasmid constructs were transfected with Lipofectamine 3000 (Thermo Fisher Scientific). The HEG1 peptide-expressing 293 H clone was obtained by selection with geneticin (Thermo Fisher Scientific).
Monolayer cells were solubilized with 20 mM Tris buffer (pH 8.0) containing 1% SDS, 1 mM phenylmethylsulfonyl fluoride, 125 mU/mL Benzonase Nuclease (Merck Millipore Co., Tokyo, Japan) (25 µL/cm^2 culture surface area). The lysate (10 µL/lane) was resolved by SDS-PAGE under reducing conditions using 6% polyacrylamide gels or 4–15% precast gels (Bio-Rad Laboratories Inc., Hercules, CA, USA). […]

Molecule | SKM9-2 binding (western blot) (SKM9-2 [1]; Neuraminidase A) | SKM9-2 binding (western blot) (SKM9-2 [1]; α2–3 Neuraminidase S) | recognition by SKM9-2 upon western blot analysis (SKM9-2 [2])
Native endogenous HEG1: native HEG1, 400 kDa mucin-like membrane protein, in ACC-MESO4 cells (protein, UniProt Q9ULI3 30-1381, looked up) Protein HEG homolog 1: TRDPPPSPARRALSLAPLAGAGLELQLERRPEREPPPTPPRERRGPATPGPSYRAPEPGAATQRGPSGRAPRGGSADAAWKHWPESNTEAHVENITFYQNQEDFSTVSSKEGVMVQTSGKSHAASDAPENLTLLAETADARGRSGSSSRTNFTILPVGYSLEIATALTSQSGNLASESLHLPSSSSEFDERIAAFQTKSGTASEMGTERAMGLSEEWTVHSQEATTSAWSPSFLPALEMGELTTPSRKRNSSGPDLSWLHFYRTAASSPLLDLSSSSESTEKLNNSTGLQSSSVSQTKTMHVATVFTDGGPRTLRSLTVSLGPVSKTEGFPKDSRIATTSSSVLLSPSAVESRRNSRVTGNPGDEEFIEPSTENEFGLTSLRWQNDSPTFGEHQLASSSEVQNGSPMSQTETVSRSVAPMRGGEITAHWLLTNSTTSADVTGSSASYPEGVNASVLTQFSDSTVQSGGSHTALGDRSYSESSSTSSSESLNSSAPRGERSIAGISYGQVRGTAIEQRTSSDHTDHTYLSSTFTKGERALLSITDNSSSSDIVESSTSYIKISNSSHSEYSSFFHAQTERSNISSYDGEYAQPSTESPVLHTSNLPSYTPTINMPNTSVVLDTDAEFVSDSSSSSSSSSSSSSSGPPLPLPSVSQSHHLFSSILPSTRASVHLLKSTSDASTPWSSSPSPLPVSLTTSTSAPLSVSQTTLPQSSSTPVLPRARETPVTSFQTSTMTSFMTMLHSSQTADLKSQSTPHQEKVITESKSPSLVSLPTESTKAVTTNSPLPPSLTESSTEQTLPATSTNLAQMSPTFTTTILKTSQPLMTTPGTLSSTASLVTGPIAVQTTAGKQLSLTHPEILVPQISTEGGISTERNRVIVDATTGLIPLTSVPTSAKEMTTKLGVTAEYSPASRSLGTSPSPQTTVVSTAEDLAPKSATFAVQSSTQSPTTVSSSASVNSCAVNPCLHNGECVADNTSRGYHCRCPPSWQGDDCSVDVNECLSNPCPSTAMCNNTQGSFICKCPVGYQLEKGICNLVRTFVTEFKLKRTFLNTTVEKHSDLQEVENEITKTLNMCFSALPSYIRSTVHASRESNAVVISLQTTFSLASNVTLFDLADRMQKCVNSCKSSAEVCQLLGSQRRIFRAGSLCKRKSPECDKDTSICTDLDGVALCQCKSGYFQFNKMDHSCRACEDGYRLENETCMSCPFGLGGLNCGNPYQLITVVIAAAGGGLLLILGIALIVTCCRKNKNDISKLIFKSGDFQMSPYAEYPKNPRSQEWGREAIEMHENGSTKNLLQMTDVYYSPTSVRNPELERNGLYPAYTGLPGSRHSCIFPGQYNPSFISDESRRRDYF | lost | weakened | –
1 kb: FLAG-tagged N-terminal deletion mutant hHEG1 (1086-1481) (protein) MSALLILALVGAAVADYKDDDDKLAAANSSIDLVNSCAVNPCLHNGECVADNTSRGYHCRCPPSWQGDDCSVDVNECLSNPCPSTAMCNNTQGSFICKCPVGYQLEKGICNLVRTFVTEFKLKRTFLNTTVEKHSDLQEVENEITKTLNMCFSALPSYIRSTVHASRESNAVVISLQTTFSLASNVTLFDLADRMQKCVNSCKSSAEVCQLLGSQRRIFRAGSLCKRKSPECDKDTSICTDLDGVALCQCKSGYFQFNKMDHSCRACEDGYRLENETCMSCPFGLGGLNCGNPYQLITVVIAAAGGGLLLILGIALIVTCCRKNKNDISKLIFKSGDFQMSPYAEYPKNPRSQEWGREAIEMHENGSTKNLLQMTDVYYSPTSVRNPELERNGLYPAYTGLPGSRHSCIFPGQYNPSFISDESRRRDYF | – | – | not detected

From publication PMC6155162, “Identification of mesothelioma-specific sialylated epitope recognized with monoclonal antibody SKM9-2 in a mucin-like membrane protein HEG1” (Scientific Reports, 2018)
